# Experimental data as given in patent publication US20200292553A1, “COMPOSITION FOR PREDICTING OR DIAGNOSING LIVER DISEASE, AND LIVER DISEASE PREDICTION OR DIAGNOSIS METHOD USING SAME” (SEOUL NATIONAL UNIVERSITY HOSPITAL, priority 2017, published 2020).
# B1: rhGDF15: Recombinant human GDF15 (rhGDF15; R&D Systems; 957-GD-025), growth differentiation factor 15 protein (protein, listed as Homo sapiens)
# chain: ARARNGDHCPLGPGRCCRLHTVRASLEDLGWADWVLSPREVQVTMCIGACPSQFRAANMHAQIKTSLHRLKPDTVPAPCCVPASYNPMVLIQKTDTGVSLQTYDDLLAKDCHCI
# Experiments:
# Kupffer cells = test: GDF15 mRNA expression after palmitate treatment, Kupffer cells; type: cell-based; details: for increase in GDF15 mRNA expression: after 6 hours
# Description: Primary hepatic cells were isolated and differentiated into hepatocytes, HSCs, Kupffer cells, and liver sinusoidal endothelial cells (LSECs). Kupffer cells are macrophages present in the liver, and are known to play an essential role in the initiation of inflammation. To distinguish Kupffer cells and LSECs, magnetic-activated cell sorting (MACS) was performed using the MiniMACS™ separator system (MiltenyiBiotec, Seoul, Korea). The purity of LSECs was evaluated by fluorescence-activated cell sorting using anti-PE antibody (purity of 90% or higher). Primary cells were cultured in 1.5 mL of a serum-free medium for 4 hours, and treated with 5(w/w)% of bovine serum albumin (BSA, control), 200 μM palmitate/5(w/w)% BSA solution, and 500 μM palmitate/5(w/w)% BSA, respectively. After 3 and 6 hours, cells were collected and further analyzed. Reverse-transcription polymerase chain reaction (RT-PCR) and real-time PCR were performed to assess the expression of GDF15 mRNA after palmitate treatment.
# [1] = test system: LX-2 cells (human hepatic stellate cells); test: rhGDF15 treatment of LX-2 cells, fibrosis markers by immunoblotting and immunofluorescence; type: cell-based
# Description: (§1) Recombinant human GDF15 (rhGDF15; R&D Systems; 957-GD-025) was added to LX-2 cells (human hepatic stellate cells, KAIST), cultured in the presence of 100 ng/mL GDF15 and 10 ng/mL TGF-β, and primary hepatocytes, directly isolated from the mouse liver, at […] per 3×10^5 cells/6 wells. The levels of fibrosis markers, such as alpha-smooth muscle actin (α-SMA) and collagen 1, were assessed by immunoblotting, immunohistochemistry, and immunofluorescence staining.
# primary hepatocytes = test: rhGDF15 treatment of primary hepatocytes, immunoblotting; type: cell-based, mouse; details: FIG. 4D
# Description: as §1
Molecule,"increase in GDF15 mRNA expression (Kupffer cells; 200 μM, P=0.009, FIG. 5B) [fold]","increase in GDF15 mRNA expression level (Kupffer cells; 500 μM, after 3 hours, P=0.004, FIG. 5A)","increase in GDF15 mRNA expression (Kupffer cells; 500 μM, P=0.032, FIG. 5B) [fold]","cell apoptosis ([1]; LX-2 cells, FIG. 4A)","expression of fibrosis markers α-SMA and collagen 1 ([1]; LX-2 cells, immunoblotting, FIG. 4A)","α-SMA expression, immunofluorescent staining ([1]; LX-2 cells, treatment for 12 hours, FIG. 4B)",acute stimulatory effect on hepatocytes ([1]; after 12 hours),time to increase of α-SMA level after treatment ([1]; after GDF15 treatment) [h],time to induction of SMAD phosphorylation after treatment ([1]; after GDF15 treatment) [h],"phosphorylation of SMAD2 and SMAD3 ([1]; printed as human hepatocytes, FIG. 4C (LX-2 cells))",phosphorylation of SMAD2 and SMAD3 (primary hepatocytes)
"CCCCCCCCCCCCCCCC(=O)O [palmate, palmitate]",2.5,approximately 2 fold,1.5,,,,,,,,
B1,,,,not influenced,increased,high expression,remarkably reduced,≤ 12,≤ 3,increasing,upregulating
